This is an account of results in paper PMC3036992.

The target of this data set is T1, RB69 DNA polymerase (RB69 pol) (Bacteriophage RB69, UniProt Q38087 1-903, D222A;D327A).
T1 sequence: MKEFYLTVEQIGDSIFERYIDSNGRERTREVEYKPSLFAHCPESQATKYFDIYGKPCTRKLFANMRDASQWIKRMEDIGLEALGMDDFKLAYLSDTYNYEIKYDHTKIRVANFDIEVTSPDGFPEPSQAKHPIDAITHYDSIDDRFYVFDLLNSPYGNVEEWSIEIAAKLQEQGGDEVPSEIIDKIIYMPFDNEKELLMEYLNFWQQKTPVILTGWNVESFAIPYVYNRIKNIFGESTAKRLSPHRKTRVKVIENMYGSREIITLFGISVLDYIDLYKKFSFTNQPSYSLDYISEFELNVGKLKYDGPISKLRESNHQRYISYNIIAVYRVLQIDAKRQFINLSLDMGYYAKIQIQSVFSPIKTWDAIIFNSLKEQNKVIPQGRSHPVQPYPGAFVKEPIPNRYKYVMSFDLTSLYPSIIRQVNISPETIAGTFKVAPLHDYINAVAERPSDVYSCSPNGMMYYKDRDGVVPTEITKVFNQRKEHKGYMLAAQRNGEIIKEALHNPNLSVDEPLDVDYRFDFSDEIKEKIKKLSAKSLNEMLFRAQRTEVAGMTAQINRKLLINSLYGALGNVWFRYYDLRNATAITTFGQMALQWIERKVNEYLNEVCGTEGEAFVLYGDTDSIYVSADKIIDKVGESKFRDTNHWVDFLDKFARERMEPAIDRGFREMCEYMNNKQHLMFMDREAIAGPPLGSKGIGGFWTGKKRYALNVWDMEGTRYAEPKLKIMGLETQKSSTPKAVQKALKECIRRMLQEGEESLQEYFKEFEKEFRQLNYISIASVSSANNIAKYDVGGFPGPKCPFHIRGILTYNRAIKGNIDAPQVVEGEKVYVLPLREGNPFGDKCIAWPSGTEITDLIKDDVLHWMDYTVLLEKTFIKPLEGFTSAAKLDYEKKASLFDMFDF
Put plainly: X-ray crystallography.

B1: P/T cocrystallization duplex (18-mer template/13-mer ddC primer) (dsDNA)
DNA 1: TCAGGTAAGCAGTCCGCG
DNA 2: GCGGACTGCTTAC
modifications: primer 3' terminus dideoxy (ddC)
On to B1, for which the binding result is “binds”.
